This note sets out measurements from patent US20040146507A1 (Genentech, published 2004).

One assay concerns the target T1, rhesus CD11a (rhesus, UniProt H9Z8N3 26-1169).
T1 construct: whole, on cells; On rhesus peripheral blood lymphocytes or leukocytes; also called rhCD11a
T1 sequence: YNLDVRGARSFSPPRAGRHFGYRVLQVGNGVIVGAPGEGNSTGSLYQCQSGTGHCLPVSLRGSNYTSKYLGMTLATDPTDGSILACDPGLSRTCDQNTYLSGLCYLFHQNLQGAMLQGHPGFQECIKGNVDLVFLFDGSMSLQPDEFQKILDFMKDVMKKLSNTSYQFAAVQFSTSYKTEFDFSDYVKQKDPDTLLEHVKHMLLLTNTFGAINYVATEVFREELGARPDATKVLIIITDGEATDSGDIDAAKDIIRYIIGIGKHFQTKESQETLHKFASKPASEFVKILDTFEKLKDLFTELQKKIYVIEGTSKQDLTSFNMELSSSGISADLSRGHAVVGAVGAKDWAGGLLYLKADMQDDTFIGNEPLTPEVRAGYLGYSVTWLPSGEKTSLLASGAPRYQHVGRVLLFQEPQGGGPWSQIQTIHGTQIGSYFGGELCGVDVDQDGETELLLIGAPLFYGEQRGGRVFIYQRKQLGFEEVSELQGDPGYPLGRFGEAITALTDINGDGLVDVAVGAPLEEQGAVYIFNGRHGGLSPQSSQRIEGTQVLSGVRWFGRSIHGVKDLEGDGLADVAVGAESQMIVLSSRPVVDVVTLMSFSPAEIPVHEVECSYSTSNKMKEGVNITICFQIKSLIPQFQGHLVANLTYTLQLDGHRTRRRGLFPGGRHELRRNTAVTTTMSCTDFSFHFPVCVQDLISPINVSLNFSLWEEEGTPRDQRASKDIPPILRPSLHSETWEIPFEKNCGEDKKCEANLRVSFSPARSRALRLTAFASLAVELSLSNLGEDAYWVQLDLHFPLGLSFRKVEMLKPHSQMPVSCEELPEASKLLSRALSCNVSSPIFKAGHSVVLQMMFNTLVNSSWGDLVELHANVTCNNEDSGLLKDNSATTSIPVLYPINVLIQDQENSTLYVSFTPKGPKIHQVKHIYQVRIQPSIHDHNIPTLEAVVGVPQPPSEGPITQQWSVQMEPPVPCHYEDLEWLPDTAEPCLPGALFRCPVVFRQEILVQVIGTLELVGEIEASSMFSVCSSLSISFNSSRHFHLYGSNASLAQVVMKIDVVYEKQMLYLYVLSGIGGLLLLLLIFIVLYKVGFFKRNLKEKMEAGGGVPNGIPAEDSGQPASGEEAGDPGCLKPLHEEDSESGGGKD
Put plainly: rhesus PBL binding.

The target of a further assay is T2, human CD11a (human, UniProt P20701 26-1170).
T2 construct: whole, on cells; On Jurkat T-cells or human peripheral blood mononuclear cells, as part of LFA-1; also called CD11a on Jurkat cells; alpha subunit of LFA-1
T2 sequence (P20701 26-1170): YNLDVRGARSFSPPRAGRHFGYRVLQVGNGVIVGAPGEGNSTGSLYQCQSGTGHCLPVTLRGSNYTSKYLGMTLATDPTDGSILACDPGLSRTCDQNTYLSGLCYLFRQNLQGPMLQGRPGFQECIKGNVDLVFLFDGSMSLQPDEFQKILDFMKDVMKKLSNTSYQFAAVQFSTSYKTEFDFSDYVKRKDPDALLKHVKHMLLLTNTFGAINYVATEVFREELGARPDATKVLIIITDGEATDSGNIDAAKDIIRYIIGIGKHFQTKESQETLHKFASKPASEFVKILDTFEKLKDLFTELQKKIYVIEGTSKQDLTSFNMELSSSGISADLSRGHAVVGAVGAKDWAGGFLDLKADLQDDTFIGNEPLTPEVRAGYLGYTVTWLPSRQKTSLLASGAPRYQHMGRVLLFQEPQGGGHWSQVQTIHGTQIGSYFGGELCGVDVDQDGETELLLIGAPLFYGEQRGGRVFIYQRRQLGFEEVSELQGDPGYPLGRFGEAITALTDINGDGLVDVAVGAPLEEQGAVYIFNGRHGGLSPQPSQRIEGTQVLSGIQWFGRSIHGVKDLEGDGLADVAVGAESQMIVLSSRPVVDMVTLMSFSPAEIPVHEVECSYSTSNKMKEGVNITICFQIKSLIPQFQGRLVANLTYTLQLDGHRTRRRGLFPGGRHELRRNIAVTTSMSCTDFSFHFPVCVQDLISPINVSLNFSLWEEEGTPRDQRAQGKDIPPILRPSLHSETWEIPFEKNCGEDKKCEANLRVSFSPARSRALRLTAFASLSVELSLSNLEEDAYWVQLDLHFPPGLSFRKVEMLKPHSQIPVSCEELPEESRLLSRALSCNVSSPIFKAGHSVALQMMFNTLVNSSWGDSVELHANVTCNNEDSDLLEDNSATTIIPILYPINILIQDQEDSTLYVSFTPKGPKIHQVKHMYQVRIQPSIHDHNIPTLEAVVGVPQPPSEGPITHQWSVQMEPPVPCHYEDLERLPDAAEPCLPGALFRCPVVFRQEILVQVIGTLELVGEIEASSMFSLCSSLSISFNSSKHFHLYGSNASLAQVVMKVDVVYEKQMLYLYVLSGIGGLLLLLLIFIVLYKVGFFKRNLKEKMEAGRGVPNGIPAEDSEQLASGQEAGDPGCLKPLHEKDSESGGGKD
Put plainly: FACScan, Jurkat cells. How it is done:
Aliquots of 10⁶ Jurkat T-cells were incubated with serial dilutions of humanized and control antibodies in PBS-0.1% BSA-10 mM sodium azide for 45 min at 4° C. The cells were washed and then incubated in fluorescein-conjugated goat anti-human F(ab′)₂ (Organon Teknika, Westchester, Pa.) for 45 min at 4° C. Cells were washed and analysed on a FACScan (Becton Dickinson, Mountain View, Calif.). 8×10³ cells were acquired by list mode and gated by forward light scatter versus side light scatter, thereby excluding dead cells and debris.
To determine which CDR residues were involved in binding to human CD11a an alanine-scan (Cunningham et al., Science 244:1081 (1989)) was performed on the CDR residues of HuIgG1. Each mutant was tested for binding to CD11a on Jurkat cells. In the light chain only CDR-L3 contributes to binding.

B1: HuIgG1 mutant AsnL92Ala (antibody, V domains shown)
VH: EVQLVESGGGLVQPGGSLRLSCAASGYSFTGHWMNWVRQAPGKGLEWVGMIHPSDSETRYNQKFKDRFTISVDKSKNTLYLQMNSLRAEDTAVYYCARGIYFYGTTYFDYWGQGTLVTVSS
VL: DIQMTQSPSSLSASVGDRVTITCRASKTISKYLAWYQQKPGKAPKLLIYSGSTLQSGVPSRFSGSGSGTDFTLTISSLQPEDFATYYCQQHAEYPLTFGQGTKVEIKR
notes: HuIgG1 mutant, human IgG1; Kabat numbering
As for B1, the “Var.EC50/HuIgG1 EC50” value with rhesus CD11a and with human CD11a was 3.3 ratio each time.

B2: HuIgG1 mutant H2A3 (antibody, V domains shown)
VH: EVQLVESGGGLVQPGGSLRLSCAASGYSFTGHWMNWVRQAPGKGLEWVGMIAPSDAETRYNQKFKDRFTISVDKSKNTLYLQMNSLRAEDTAVYYCARGIYFYGTTYFDYWGQGTLVTVSS
VL: DIQMTQSPSSLSASVGDRVTITCRASKTISKYLAWYQQKPGKAPKLLIYSGSTLQSGVPSRFSGSGSGTDFTLTISSLQPEDFATYYCQQHNEYPLTFGQGTKVEIK
notes: as for B1
Consider B2, for which the “Var.EC50/HuIgG1 EC50” value came out at 1.3 ratio with rhesus CD11a and 4.6 ratio in the assay with human CD11a.

B3: HuIgG1 mutant LysH62Ala (antibody, V domains shown)
VH: EVQLVESGGGLVQPGGSLRLSCAASGYSFTGHWMNWVRQAPGKGLEWVGMIHPSDSETRYNQAFKDRFTISVDKSKNTLYLQMNSLRAEDTAVYYCARGIYFYGTTYFDYWGQGTLVTVSS
VL: DIQMTQSPSSLSASVGDRVTITCRASKTISKYLAWYQQKPGKAPKLLIYSGSTLQSGVPSRFSGSGSGTDFTLTISSLQPEDFATYYCQQHNEYPLTFGQGTKVEIK
notes: as for B1
As to B3, the “Var.EC50/HuIgG1 EC50” value with rhesus CD11a was determined as 4.9 ratio; with human CD11a, 1.8 ratio.

B4: HuIgG1 mutant GlyH31Ala (antibody, V domains shown)
VH: EVQLVESGGGLVQPGGSLRLSCAASGYSFTAHWMNWVRQAPGKGLEWVGMIHPSDSETRYNQKFKDRFTISVDKSKNTLYLQMNSLRAEDTAVYYCARGIYFYGTTYFDYWGQGTLVTVSS
VL: DIQMTQSPSSLSASVGDRVTITCRASKTISKYLAWYQQKPGKAPKLLIYSGSTLQSGVPSRFSGSGSGTDFTLTISSLQPEDFATYYCQQHNEYPLTFGQGTKVEIK
notes: as for B1
As for B4, the figures for the “Var.EC50/HuIgG1 EC50” value with rhesus CD11a and in the assay with human CD11a were 2.4 ratio and 1.2 ratio, respectively.

B5: HuIgG1 mutant AspH65Ala (antibody, V domains shown)
VH: EVQLVESGGGLVQPGGSLRLSCAASGYSFTGHWMNWVRQAPGKGLEWVGMIHPSDSETRYNQKFKARFTISVDKSKNTLYLQMNSLRAEDTAVYYCARGIYFYGTTYFDYWGQGTLVTVSS
VL: DIQMTQSPSSLSASVGDRVTITCRASKTISKYLAWYQQKPGKAPKLLIYSGSTLQSGVPSRFSGSGSGTDFTLTISSLQPEDFATYYCQQHNEYPLTFGQGTKVEIK
notes: as for B1
As for B5, the “Var.EC50/HuIgG1 EC50” value with rhesus CD11a turned out to be 1.1 ratio; with human CD11a it was 0.8 ratio.

B6: HuIgG1 mutant GlnH61Ala (antibody, V domains shown)
VH: EVQLVESGGGLVQPGGSLRLSCAASGYSFTGHWMNWVRQAPGKGLEWVGMIHPSDSETRYNAKFKDRFTISVDKSKNTLYLQMNSLRAEDTAVYYCARGIYFYGTTYFDYWGQGTLVTVSS
VL: DIQMTQSPSSLSASVGDRVTITCRASKTISKYLAWYQQKPGKAPKLLIYSGSTLQSGVPSRFSGSGSGTDFTLTISSLQPEDFATYYCQQHNEYPLTFGQGTKVEIK
notes: as for B1
Take B6: the “Var.EC50/HuIgG1 EC50” value in the assay with rhesus CD11a was 5.3 ratio; with human CD11a, 4.1 ratio.

B7: HuIgG1 mutant LysH64Ala (antibody, V domains shown)
VH: EVQLVESGGGLVQPGGSLRLSCAASGYSFTGHWMNWVRQAPGKGLEWVGMIHPSDSETRYNQKFADRFTISVDKSKNTLYLQMNSLRAEDTAVYYCARGIYFYGTTYFDYWGQGTLVTVSS
VL: DIQMTQSPSSLSASVGDRVTITCRASKTISKYLAWYQQKPGKAPKLLIYSGSTLQSGVPSRFSGSGSGTDFTLTISSLQPEDFATYYCQQHNEYPLTFGQGTKVEIK
notes: as for B1
On to B7, for which the “Var.EC50/HuIgG1 EC50” value in the assay with rhesus CD11a was found to be 1.2 ratio; with human CD11a, 2.5 ratio.

B8: HuIgG1 mutant ThrL53Ala (antibody, V domains shown)
VH: EVQLVESGGGLVQPGGSLRLSCAASGYSFTGHWMNWVRQAPGKGLEWVGMIHPSDSETRYNQKFKDRFTISVDKSKNTLYLQMNSLRAEDTAVYYCARGIYFYGTTYFDYWGQGTLVTVSS
VL: DIQMTQSPSSLSASVGDRVTITCRASKTISKYLAWYQQKPGKAPKLLIYSGSALQSGVPSRFSGSGSGTDFTLTISSLQPEDFATYYCQQHNEYPLTFGQGTKVEIKR
notes: as for B1
With B8, the “Var.EC50/HuIgG1 EC50” value was determined as 0.7 ratio with rhesus CD11a and 0.9 ratio in the assay with human CD11a.

B9: HuIgG1 mutant L1 (antibody, V domains shown)
VH: EVQLVESGGGLVQPGGSLRLSCAASGYSFTGHWMNWVRQAPGKGLEWVGMIHPSDSETRYNQKFKDRFTISVDKSKNTLYLQMNSLRAEDTAVYYCARGIYFYGTTYFDYWGQGTLVTVSS
VL: DIQMTQSPSSLSASVGDRVTITCRASAAIAAYLAWYQQKPGKAPKLLIYSGSTLQSGVPSRFSGSGSGTDFTLTISSLQPEDFATYYCQQHNEYPLTFGQGTKVEIKR
notes: as for B1
With B9, the “Var.EC50/HuIgG1 EC50” value came to 1 ratio with rhesus CD11a and 1.3 ratio with human CD11a.

B10: HuIgG1 mutant HisH52Ala (antibody, V domains shown)
VH: EVQLVESGGGLVQPGGSLRLSCAASGYSFTGHWMNWVRQAPGKGLEWVGMIAPSDSETRYNQKFKDRFTISVDKSKNTLYLQMNSLRAEDTAVYYCARGIYFYGTTYFDYWGQGTLVTVSS
VL: DIQMTQSPSSLSASVGDRVTITCRASKTISKYLAWYQQKPGKAPKLLIYSGSTLQSGVPSRFSGSGSGTDFTLTISSLQPEDFATYYCQQHNEYPLTFGQGTKVEIK
notes: as for B1
For the molecule B10, the entries for the “Var.EC50/HuIgG1 EC50” value with rhesus CD11a and with human CD11a were 0.7 ratio and 1.5 ratio, respectively.

B11: HuIgG1 mutant GluL93Ala (antibody, V domains shown)
VH: EVQLVESGGGLVQPGGSLRLSCAASGYSFTGHWMNWVRQAPGKGLEWVGMIHPSDSETRYNQKFKDRFTISVDKSKNTLYLQMNSLRAEDTAVYYCARGIYFYGTTYFDYWGQGTLVTVSS
VL: DIQMTQSPSSLSASVGDRVTITCRASKTISKYLAWYQQKPGKAPKLLIYSGSTLQSGVPSRFSGSGSGTDFTLTISSLQPEDFATYYCQQHNAYPLTFGQGTKVEIKR
notes: as for B1
For B11, the “Var.EC50/HuIgG1 EC50” value with rhesus CD11a stood at 2.9 ratio; in the assay with human CD11a it was 1.7 ratio.

B12: HuIgG1 mutant H2A2 (antibody, V domains shown)
VH: EVQLVESGGGLVQPGGSLRLSCAASGYSFTGHWMNWVRQAPGKGLEWVGMIHPADAETRYNQKFKDRFTISVDKSKNTLYLQMNSLRAEDTAVYYCARGIYFYGTTYFDYWGQGTLVTVSS
VL: DIQMTQSPSSLSASVGDRVTITCRASKTISKYLAWYQQKPGKAPKLLIYSGSTLQSGVPSRFSGSGSGTDFTLTISSLQPEDFATYYCQQHNEYPLTFGQGTKVEIK
notes: as for B1
With B12, the “Var.EC50/HuIgG1 EC50” value with rhesus CD11a turned out to be 1.1 ratio; with human CD11a, 1.9 ratio.

B13: HuIgG1 mutant SerL50Ala (antibody, V domains shown)
VH: EVQLVESGGGLVQPGGSLRLSCAASGYSFTGHWMNWVRQAPGKGLEWVGMIHPSDSETRYNQKFKDRFTISVDKSKNTLYLQMNSLRAEDTAVYYCARGIYFYGTTYFDYWGQGTLVTVSS
VL: DIQMTQSPSSLSASVGDRVTITCRASKTISKYLAWYQQKPGKAPKLLIYAGSTLQSGVPSRFSGSGSGTDFTLTISSLQPEDFATYYCQQHNEYPLTFGQGTKVEIKR
notes: as for B1
Turning to B13, the “Var.EC50/HuIgG1 EC50” value in the assay with rhesus CD11a was found to be 2.7 ratio; with human CD11a it was 1.2 ratio.

B14: HuIgG1 mutant ArgH58Ala (antibody, V domains shown)
VH: EVQLVESGGGLVQPGGSLRLSCAASGYSFTGHWMNWVRQAPGKGLEWVGMIHPSDSETAYNQKFKDRFTISVDKSKNTLYLQMNSLRAEDTAVYYCARGIYFYGTTYFDYWGQGTLVTVSS
VL: DIQMTQSPSSLSASVGDRVTITCRASKTISKYLAWYQQKPGKAPKLLIYSGSTLQSGVPSRFSGSGSGTDFTLTISSLQPEDFATYYCQQHNEYPLTFGQGTKVEIK
notes: as for B1
Consider B14, for which the “Var.EC50/HuIgG1 EC50” value turned out to be 3.3 ratio in the assay with rhesus CD11a and 1.1 ratio with human CD11a.
